Measured values: patent US20060025337

Molecular target: T1, p53-382 acetylated peptide substrate ('Fluor de Lys-SIRT1', BIOMOL) (not fully specified)
T1 chain: RHKK

B1: recombinant human SIRT1 (His6-tagged) (protein)
chain: MADEAALALQPGGSPSAAGADREAASSPAGEPLRKRPRRDGPGLERSPGEPGGAAPEREVPAAARGCPGAAAAALWREAEAEAAAAGGEQEAQATAAAGEGDNGPGLQGPSREPPLADNLYDEDDDDEGEEEEEAAAAAIGYRDNLLFGDEIITNGFHSCESDEEDRASHASSSDWTPRPRIGPYTFVQQHLMIGTDPRTILKDLLPETIPPPELDDMTLWQIVINILSEPPKRKKRKDINTIEDAVKLLQECKKIIVLTGAGVSVSCGIPDFRSRDGIYARLAVDFPDLPDPQAMFDIEYFRKDPRPFFKFAKEIYPGQFQPSLCHKFIALSDKEGKLLRNYTQNIDTLEQVAGIQRIIQCHGSFATASCLICKYKVDCEAVRGDIFNQVVPRCPRCPADEPLAIMKPEIVFFGENLPEQFHRAMKYDKDEVDLLIVIGSSLKVRPVALIPSSIPHEVPQILINREPLPHLHFDVELLGDCDVIINELCHRLGGEYAKLCCNPVKLSEITEKPPRTQKELAYLSELPPTPLHVSEDSSSPERTSPPDSSVIVTLLDQAAKSNDDLDVSESKGCMEEKPQEVQTSRNVESIAEQMENPDLKNVGSSTGEKNERTSVAGTVRKCWPNRVAKEQISRRLDGNQYLFLPPNRYIFHGAEVYSDSEDDVLSSSSCGSNSDSGTCQSPSLEEPMEDESEIEEFYNGLEDEPDVPERAGGAGFGTDGDDQEAINEAISVKQEVTDMNYPSNKS
With B1 the “Km for p53-382 acetylated peptide (SIRT1 initial rate at 3 mM NAD+, control, no resveratrol)” value was “Km(control, ν)=64 µM”, the “Km for p53-382 acetylated peptide (SIRT1 initial rate at 3 mM NAD+, with 100 µM resveratrol)” value was “Km (+resveratrol, Δ)=1.8 µM” and the “fold decrease of the acetylated peptide Km caused by 100 µM resveratrol” value was “Its effect on the acetylated peptide Km was particularly striking, amounting to a 35-fold decrease”.
